# Patent US20240197877A1, “BINDING PROTEINS RECOGNIZING HA-2 ANTIGEN AND USES […]” (published 2024)
# B1: HA2-MJ14-DP317 MGTM Sequence (also known as “TCR-101” and “MJ14-DP317”) (TCR, V domains shown)
# V domain 1: QTVTQSQPEMSVQEAETVTLSCTYDTSESDYYLFWYKQPPSRQMILVIRQEAYKQQNATENRFSVNFQKAAKSFSLKISDSQLGDAAMYFCAYRSERYSTLTFGKGTMLLVSP
# V domain 2: SQTIHQWPATLVQPVGSPLSLECTVEGTSNPNLYWYRQAAGRGLQLLFYSVGIGQISSEVPQNLSASRPQDRQFILSSKKLLLSDSGFYLCAWSVPYLAGGKRPDTQYFGPGTRLTVLE
# Experiments:
# [1] = molecular target: MYO3A/MYO3B peptide (…) on peptide-pulsed T2 cells, HLA-A*02:01 (human); assay: cell-based or functional assay
# [2] = molecular target: MALT1 peptide (…) on peptide-pulsed T2 cells, HLA-A*02:01 (human); assay: cell-based or functional assay
binder,measurement,setting,value
B1,EC50 of cytotoxicity (AUC of growth of peptide-pulsed T2 cells over 72 h against peptide dose),[1],100 fold lower affinity than the target HA-2 peptide
same,EC50 of cytotoxicity (AUC of growth of peptide-pulsed T2 cells over 72 h against peptide dose),[2],100 fold lower affinity than the target HA-2 peptide
